*1 amine or outer side, *2 acyl side, *3 side chain or, on linkers, in order; H or OH if unused. Where no end group is shown, it is not given here. Side-chain parts run from the residue outwards. [ ]: non-standard residue; d: D form. The star is where a group is joined. C20 diacid = O=C(O)CCCCCCCCCCCCCCCCCCC(=O)*; C18 diacid = O=C(O)CCCCCCCCCCCCCCCCC(=O)*; C16 diacid = O=C(O)CCCCCCCCCCCCCCC(=O)*; γGlu = O=C(O)[C@H](CCC(=O)[*:2])N[*:1]; NMeI = CC[C@H](C)[C@H](NC)C(=O)O; Pentanoyl = CCCCC(=O)*; AEEA = NCCOCCOCC(=O)O; Aib = CC(C)(N)C(=O)O

The assay concerns the target human corticotropin-releasing factor 2a (CRF2a receptor) (human), Q13324. As to the kind of experiment: cell-based or functional assay.

human corticotropin-releasing factor 2a (CRF2a receptor) (human), Q13324, sequence (Q13324 20-411): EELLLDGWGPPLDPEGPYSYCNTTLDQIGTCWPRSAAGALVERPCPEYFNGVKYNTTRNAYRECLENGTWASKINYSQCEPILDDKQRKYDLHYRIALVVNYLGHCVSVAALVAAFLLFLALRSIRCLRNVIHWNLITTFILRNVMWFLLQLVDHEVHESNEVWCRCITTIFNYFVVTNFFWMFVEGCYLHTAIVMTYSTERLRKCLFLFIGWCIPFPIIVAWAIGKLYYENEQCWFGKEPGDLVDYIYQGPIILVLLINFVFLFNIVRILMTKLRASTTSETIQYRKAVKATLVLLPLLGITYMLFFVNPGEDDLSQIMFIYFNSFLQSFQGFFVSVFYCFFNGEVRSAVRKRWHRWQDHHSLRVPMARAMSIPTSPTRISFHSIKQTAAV

B1: SEQ ID NO 150 (peptide)
peptide: H-IVLSLD[dV]PIKLK([AEEA-AEEA-γGlu-C18 diacid])QILLKQERQKKQREQAEKNKQILEQV-NH2
SMILES: CC[C@H](C)[C@H](N)C(=O)N[C@H](C(=O)N[C@@H](CC(C)C)C(=O)N[C@@H](CO)C(=O)N[C@@H](CC(C)C)C(=O)N[C@@H](CC(=O)O)C(=O)N[C@@H](C(=O)N1CCC[C@H]1C(=O)N[C@H](C(=O)N[C@@H](CCCCN)C(=O)N[C@@H](CC(C)C)C(=O)N[C@@H](CCCCNC(=O)COCCOCCNC(=O)COCCOCCNC(=O)CC[C@H](NC(=O)CCCCCCCCCCCCCCCCC(=O)O)C(=O)O)C(=O)N[C@@H](CCC(N)=O)C(=O)N[C@H](C(=O)N[C@@H](CC(C)C)C(=O)N[C@@H](CC(C)C)C(=O)N[C@@H](CCCCN)C(=O)N[C@@H](CCC(N)=O)C(=O)N[C@@H](CCC(=O)O)C(=O)N[C@@H](CCCNC(=N)N)C(=O)N[C@@H](CCC(N)=O)C(=O)N[C@@H](CCCCN)C(=O)N[C@@H](CCCCN)C(=O)N[C@@H](CCC(N)=O)C(=O)N[C@@H](CCCNC(=N)N)C(=O)N[C@@H](CCC(=O)O)C(=O)N[C@@H](CCC(N)=O)C(=O)N[C@@H](C)C(=O)N[C@@H](CCC(=O)O)C(=O)N[C@@H](CCCCN)C(=O)N[C@@H](CC(N)=O)C(=O)N[C@@H](CCCCN)C(=O)N[C@@H](CCC(N)=O)C(=O)N[C@H](C(=O)N[C@@H](CC(C)C)C(=O)N[C@@H](CCC(=O)O)C(=O)N[C@@H](CCC(N)=O)C(=O)N[C@H](C(N)=O)C(C)C)[C@@H](C)CC)[C@@H](C)CC)[C@@H](C)CC)C(C)C)C(C)C
Molecule B1 gave an EC50 [nM] (cAMP) of 0.25 nM.

B2: SEQ ID NO 228 (peptide)
peptide: Pentanoyl-VLSLD[dV]PIGLK([γGlu-C20 diacid])KILLEQEKQKKQREQAETN[Aib]QILAQV-NH2
SMILES: CCCCC(=O)N[C@H](C(=O)N[C@@H](CC(C)C)C(=O)N[C@@H](CO)C(=O)N[C@@H](CC(C)C)C(=O)N[C@@H](CC(=O)O)C(=O)N[C@@H](C(=O)N1CCC[C@H]1C(=O)N[C@H](C(=O)NCC(=O)N[C@@H](CC(C)C)C(=O)N[C@@H](CCCCNC(=O)CC[C@H](NC(=O)CCCCCCCCCCCCCCCCCCC(=O)O)C(=O)O)C(=O)N[C@@H](CCCCN)C(=O)N[C@H](C(=O)N[C@@H](CC(C)C)C(=O)N[C@@H](CC(C)C)C(=O)N[C@@H](CCC(=O)O)C(=O)N[C@@H](CCC(N)=O)C(=O)N[C@@H](CCC(=O)O)C(=O)N[C@@H](CCCCN)C(=O)N[C@@H](CCC(N)=O)C(=O)N[C@@H](CCCCN)C(=O)N[C@@H](CCCCN)C(=O)N[C@@H](CCC(N)=O)C(=O)N[C@@H](CCCNC(=N)N)C(=O)N[C@@H](CCC(=O)O)C(=O)N[C@@H](CCC(N)=O)C(=O)N[C@@H](C)C(=O)N[C@@H](CCC(=O)O)C(=O)N[C@H](C(=O)N[C@@H](CC(N)=O)C(=O)NC(C)(C)C(=O)N[C@@H](CCC(N)=O)C(=O)N[C@H](C(=O)N[C@@H](CC(C)C)C(=O)N[C@@H](C)C(=O)N[C@@H](CCC(N)=O)C(=O)N[C@H](C(N)=O)C(C)C)[C@@H](C)CC)[C@@H](C)O)[C@@H](C)CC)[C@@H](C)CC)C(C)C)C(C)C
B2: the EC50 [nM] (cAMP) stood at 0.19 nM.

B3: SEQ ID NO 229 (peptide)
peptide: [NMeI]VLSLD[dV]PIGLK([γGlu-C20 diacid])KILLEQEKQKKQREQAETN[Aib]QILAQV-NH2
modifications: N-terminus assumed
SMILES: CC[C@H](C)[C@H](NC)C(=O)N[C@H](C(=O)N[C@@H](CC(C)C)C(=O)N[C@@H](CO)C(=O)N[C@@H](CC(C)C)C(=O)N[C@@H](CC(=O)O)C(=O)N[C@@H](C(=O)N1CCC[C@H]1C(=O)N[C@H](C(=O)NCC(=O)N[C@@H](CC(C)C)C(=O)N[C@@H](CCCCNC(=O)CC[C@H](NC(=O)CCCCCCCCCCCCCCCCCCC(=O)O)C(=O)O)C(=O)N[C@@H](CCCCN)C(=O)N[C@H](C(=O)N[C@@H](CC(C)C)C(=O)N[C@@H](CC(C)C)C(=O)N[C@@H](CCC(=O)O)C(=O)N[C@@H](CCC(N)=O)C(=O)N[C@@H](CCC(=O)O)C(=O)N[C@@H](CCCCN)C(=O)N[C@@H](CCC(N)=O)C(=O)N[C@@H](CCCCN)C(=O)N[C@@H](CCCCN)C(=O)N[C@@H](CCC(N)=O)C(=O)N[C@@H](CCCNC(=N)N)C(=O)N[C@@H](CCC(=O)O)C(=O)N[C@@H](CCC(N)=O)C(=O)N[C@@H](C)C(=O)N[C@@H](CCC(=O)O)C(=O)N[C@H](C(=O)N[C@@H](CC(N)=O)C(=O)NC(C)(C)C(=O)N[C@@H](CCC(N)=O)C(=O)N[C@H](C(=O)N[C@@H](CC(C)C)C(=O)N[C@@H](C)C(=O)N[C@@H](CCC(N)=O)C(=O)N[C@H](C(N)=O)C(C)C)[C@@H](C)CC)[C@@H](C)O)[C@@H](C)CC)[C@@H](C)CC)C(C)C)C(C)C
Molecule B3 had an EC50 [nM] (cAMP) of 0.11 nM.

B4: SEQ ID NO 13 (peptide)
peptide: H-IVLSLD[dV]PIKLK([γGlu-C16 diacid])QILLKQERQKKQREQAEKNVQILEQV-NH2
SMILES: CC[C@H](C)[C@H](N)C(=O)N[C@H](C(=O)N[C@@H](CC(C)C)C(=O)N[C@@H](CO)C(=O)N[C@@H](CC(C)C)C(=O)N[C@@H](CC(=O)O)C(=O)N[C@@H](C(=O)N1CCC[C@H]1C(=O)N[C@H](C(=O)N[C@@H](CCCCN)C(=O)N[C@@H](CC(C)C)C(=O)N[C@@H](CCCCNC(=O)CC[C@H](NC(=O)CCCCCCCCCCCCCCC(=O)O)C(=O)O)C(=O)N[C@@H](CCC(N)=O)C(=O)N[C@H](C(=O)N[C@@H](CC(C)C)C(=O)N[C@@H](CC(C)C)C(=O)N[C@@H](CCCCN)C(=O)N[C@@H](CCC(N)=O)C(=O)N[C@@H](CCC(=O)O)C(=O)N[C@@H](CCCNC(=N)N)C(=O)N[C@@H](CCC(N)=O)C(=O)N[C@@H](CCCCN)C(=O)N[C@@H](CCCCN)C(=O)N[C@@H](CCC(N)=O)C(=O)N[C@@H](CCCNC(=N)N)C(=O)N[C@@H](CCC(=O)O)C(=O)N[C@@H](CCC(N)=O)C(=O)N[C@@H](C)C(=O)N[C@@H](CCC(=O)O)C(=O)N[C@@H](CCCCN)C(=O)N[C@@H](CC(N)=O)C(=O)N[C@H](C(=O)N[C@@H](CCC(N)=O)C(=O)N[C@H](C(=O)N[C@@H](CC(C)C)C(=O)N[C@@H](CCC(=O)O)C(=O)N[C@@H](CCC(N)=O)C(=O)N[C@H](C(N)=O)C(C)C)[C@@H](C)CC)C(C)C)[C@@H](C)CC)[C@@H](C)CC)C(C)C)C(C)C
In turn, B4 returned an EC50 [nM] (cAMP) of 0.15 nM.

The values are drawn from patent US20260001928A1 (CORTERIA PHARMACEUTICALS, priority 2022, published 2026).
